Laboratory results reported in patent US20220144922A1 (Adimab, published 2022).
Numbering of substitutions follows the chain as printed.

B1: ADI-15617 (antibody, V domains shown)
VH: EVQLVESGGGLVQPGGSLRISCAASGFSISSHAVSWVRQAPGKGLEWVSVISGSGGDTHSVVQGRGSGTYYADSVKGRFTISRDNVRNTVYLQMNSLRVEDTAVYYCAKDDPTLFWSGSGYYGMDVWGQGTTVTVSS
VL: DIRVTQSPSSLSASVGDRVTITCQASQGISDSLNWYQQKPGKAPKLLIYGASKLEPGVSSRFSGRGSGRDFTFTISSLQPEDIGTYYCQQYDNLPLTFGPGTKLEIK
notes: IgG; also called Antibody Number 182
B2: ADI-15628 (antibody, V domains shown)
VH: QVQLVQSGGGVVQPGRSLRLSCAASGFTFSDFSMHWVRQAPGKGLEWVALISNDGSNKYYSDSLKGSFIISRDNSKNTLYLQLNSLGAEDTALYYCARDAVPHYDYVWGNFDYWGPGTLVTVSS
VL: QPVLTQPASVSASPGQSITISCTGTSSDVGGYNYVSWYQQHPGKAPKLIVYEVSNRPSGVSNRFSGSKSGNTASLTISGLQADDEADYYCSSYTSFTPVVFGGGTKVTVL
notes: IgG
B3: ADI-15652 (antibody, V domains shown)
VH: B2 VH with Q1E, V5L, Q6E, P116Q
VL: B2 VL with P2S, V50I, V107L
notes: IgG
B4: ADI-15632 (antibody, V domains shown)
VH: QVQLVQSGGGLVQPGRSLRLSCTASGFSFSDYGVTWVRQAPGKGLEWIGFVRTKGYGGTTEYAASVRGRFTISRDDSKSVAYLQLNSLKVEDTAVYYCSGASRGFWSGPTYYYFGMDVWGHGTTVTVSS
VL: EIVLTQSPLSLAVTPGEPASISCRSSQSLLHGNGYNYLDWYLQKPGQSPQLLIFWGSYRASGAPDRFSASGSGSEFTLKIRRVEAEDVGVYYCMQPLQTTFGQGTKVDIK
notes: IgG; also called Antibody Number 197
B5: ADI-15654 (antibody, V domains shown)
VH: QVQLVQSGAEVKRPGSSVKVSCKASGGTSSSYIISWVRQAPGQGLEWMGGIIPIPISGAPTYAQKFQGRANYAQKFEGRLTITADRLTSTAYMELSSLTSEDTAVYYCVRDERNGGYWGQGTLVTVSS
VL: QSALTQPASVSGSPGQSITISCTGTSNDVGAYNHVSWYQQHPGKAPKLMIYDVTNRPSGVSNRFSGSKSGNTASLTIFGLQTDDEADYYCSSYTISSTLVFGGGTQLTVL
notes: IgG; also called Antibody Number 218
B6: ADI-15663 (antibody, V domains shown)
VH: QVQLVQSGGGLVKPGGSLRLSCAASGFTFSSYTMNWVRQAPGKGLEWVSSITGGSSFTNYADSLEGRFTISRDNAKSSLFLQMNSLRVEDTAVYYCARDQPGTIFGVVQDYWGQGTLVTVSS
VL: QSVLTQPPSVSGAPGQRVTISCTGGSSNIGAGYDVHWYQQLPGTAPKLLIYGNSNRPSGVPDRFSGSKSGTSASLAITGLQAEDEADYYCQSYDSRLSVVFGGGTKVTVL
notes: IgG
B7: ADI-15596 (antibody, V domains shown)
VH: EVQLVESGGALVKPGGSLRLSCVGTGLTFTTAYMSWARQAPGKGLEWVGRILSKSDGGTTDYPTPVKGRFTISRDESKNTLYLQMNSLKIEDTAVYYCTTDRGITARPIFDSWGQGTLVTVSS
VL: QSVLTQPPSVSGALGRRVTISCTGSSSNIGAGYDVHWYRQLPGTAPKLLIYGNTKRPSGVPDRFSGSKYATSASLAITGLQADDDADYYCQSYDGGLSGYVFGTGTKVTVL
notes: IgG
B8: ADI-15602 (antibody, V domains shown)
VH: EVQLLESGGGVVQPGKSLRLSCVASGFTFGDYGMHWVRQAPGKGLEWVAVISDGGSTKYYADSVKGRFTIARDNSKNTLNLQMNSLRAEDTAVYYCAKDLAWIFGLGASYMDVWGQGTLVTVSS
VL: DIQLTQSPGTLSLSPGERATLSCRASQTVSSSYLAWYQQKPGQAPRLLIYDASSRATGIPDRFSGSGSGTDFTLTISRLEPEDFAVYYCQQYGSSPFGLTFGGGTKVEIK
notes: IgG
B9: ADI-15603 (antibody, V domains shown)
VH: QVQLVQSGGGLVQPGGSLRLSCAASGFTFGRHAMTWVRQAPGKGLEWVAGITATGDPTYYPDSVKGRFAVSRDNSRNTLYLQMDSLRVEDTALYYCARSWDDYGDLDWYFALWGRGTMVTVSS
VL: EIVMTQSPAILSVSPGERATLSCRASQSVSSSLAWYQQKPGQAPRLLIYGASTRATGIPPRFSGSGSGTQFTLTISSLQSEDVAVYYCQQYSDWPPLTFGGGTKVEIK
notes: IgG
B10: ADI-15606 (antibody, V domains shown)
VH: B9 VH with Q1E, V5L, Q6E, G30R, H32Y, G50A, P57T, V88A, R98K, M118L
VL: B9 VL with E1D, V83F
notes: IgG
B11: ADI-15604 (antibody, V domains shown)
VH: EVQLLESGGGLVKPGGSLRLSCGASGFKFSDYYMSWIRQAPGKGLEWVSHISSSNSYINYADSVKGRFTISRDNARNSLSLQMNSLRAEDTAVYYCARFPLYCSRSSCSHYVDYWGQGTLVTVSS
VL: B6 VL with G25S, S26G, G52D, S54N, A82V, S95R, R96S
notes: IgG; also called Antibody Number 170
B12: ADI-15609 (antibody, V domains shown)
VH: EVQLLESGGGVVQPGRSLKLSCAASGFSFTTDVMHWIRQAPGKGLEWVAVISTDGANSYYAESVKGRFTISRDNSKNTLFLQMSSLRAEDTAVYYCASQGYHYVNMADVGVPSFDHWGQGTLVTVSS
VL: ETTLTQSPSSLSASVGDRVTITCRARRSIDNYLNWYQHKPGTAPKLLIYAVSSLPSGVPSRFSGSGSGADFTLTISSLQPEDLATYYCQQSYMTPPTFGQGTKLEIK
notes: IgG
B13: ADI-15644 (antibody, V domains shown)
VH: QVQLVQSGAEVKKPGSSVKVSCRTSGGTFSSFSISWVRQAPGQGLEWMGGIIPIFGTANYAKKFQGRVTITADESTDTAYMELRSLRSEDTAVYYCARDSPKISATEYYFDYWGQGTLVTVSS
VL: DIQVTQSPSTLSASVGDRVTITCRASQSFTSWLAWYQQKPGKAPKLLIYKASTLDSGVPSRFSGSGSGTEFTLTINGLQPDDFATYYCQHYDSYSGTFGQGTRLEIK
notes: IgG
B14: ADI-15653 (antibody, V domains shown)
VH: QVQLVQSGAEVKKPGSSVKVSCKSSGGTFSNYIISWVRQAPGQGLEWMGGIVPLSGTTDYAQKFQGRVTITADKSTTTAYMELRTLRPEDTAVYYCARGSGGSNAYFDPWGQGTLVTVSS
VL: QSVVTQPPSVSVAPGKTAKITCGGNNIGSKSVYWYQQKPGQAPVLVMYYDTYRPSGIPERFSGSNSGNSATLTISRVDAGDEADYYCQVWDSRSDHPYVFGSGTKLTVL
notes: IgG
B15: ADI-15666 (antibody, V domains shown)
VH: QVQLQQWGAGLLKPSETLSLTCGVSDGSFSAYYWNWIRQSPGKGLEWIGETNPSENTNYSPSLKNRVTISADRSANQFSLRLRSVTAADTGVYYCARGRGYYGSTTDYRGLHWFDPWGQGTLVTVSS
VL: ETTLTQSPVTLSVSPGERATLSCRASQSVSFNLAWYQQKPGQAPRLLIYGASTRVTNLPLRFSGSGSGTEFTLTISSLQSEDFAVYYCQQYNNWPRTFGQGTKLEIK
notes: IgG; also called Antibody Number 230
B16: ADI-15578 (antibody, V domains shown)
VH: QVQLVQSGGGLVQPGGSLRLSCVGSGFTFSTYSMNWVRQAPGKGLEWVSHISSSSVTMYYADFVKGRFTISRDNAKNSLYLQMTSLRAEDTAVYYCARDAGPVWSGYYDYGMDVWGQGTTVTVSS
VL: ETTLTQSPATLSLSPGERATLSCRASQSVSSLLAWYQQKPGQAPRLLIFDASKRATGIPARFSGSGSGTDFTLTISSLEPEDFAVYYCQQRYNWPPLTFGGGTKVEIK
notes: IgG
B17: ADI-15662 (antibody, V domains shown)
VH: QVQLQESGPGLVKPSETLSLTCTVSGGSVSRGSYYWTWIRQPPGKGLEWIGYIYYSGSTNYNPSLKSRVTISVDTSKNQFSLKLSSVTAADTAVYYCARDIGEDKYGTYYGMDVWGQGTTVTVSS
VL: B16 VL with T2I, T3V, L4M, L32S, F49Y, D50G, K53N, Y92T, L97V, G101P
notes: IgG
B18: ADI-15610 (antibody, V domains shown)
VH: EVQLLESGAEVKKPGSSVKVSCKASGGTFSSYAITWVRQAPGQGLEWMGGIIPILGTTTYAQRFQGRVTITADKSTTTAYMELSRLRSEDTAVYYCAKTVSQYPNTYNYGMDVWGQGTTVTVSS
VL: EIVMTQSPSSLSASVGDRVTITCRASQSVSIYLNWYQQKPGKTPELLIYGASRLQSGVPSRFSGSGSGTDFTLTISSLQPEDFATYYCLQTYSTPLTFGQGTKVEIK
notes: IgG; also called Antibody Number 175

Target: T1, prefusion-stabilized RSV F ectodomain (DS-Cav1), subtype B (respiratory syncytial virus subtype B)
T1 construct: extracellular domain; also called Prefusion subtype B
Assay: BLI, IgG on sensor
Experimental: (§1) IgG binding to DS-Cav1 and FA FP was determined by BLI measurements using a FortéBio Octet HTX instrument (Pall Life Sciences). […] Data was analyzed using the ForteBio Data Analysis Software 7. The data was fit to a 1:1 binding model to calculate an association and dissociation rate, and KD was calculated using the ratio kd/kₐ.

Binder	Kd
B1	0.71 nM
B2	0.659 nM
B3	0.377 nM
B4	29.4 nM
B5	4.47 nM
B6	0.287 nM
B7	47.5 nM
B8	0.807 nM
B9	6.97 nM
B10	5.75 nM
B11	0.46 nM
B12	0.628 nM

Target: T2, postfusion RSV F ectodomain, subtype B (respiratory syncytial virus subtype B)
T2 construct: extracellular domain; also called Postfusion subtype B
Assay: BLI, IgG on sensor
Experimental: as §1

Binder	Kd
B13	0.194 nM
B14	0.39 nM
B15	0.546 nM
B9	11.9 nM
B10	5.89 nM
B11	1.77 nM
B16	1.54 nM

Target: T3, postfusion RSV F ectodomain (F ΔFP), subtype A (respiratory syncytial virus subtype A, UniProt P03420 26-109; P03420 147-524)
T3 construct: extracellular domain; also called Postfusion subtype A
Assay: BLI, IgG on sensor
Experimental: as §1

Binder	binding result	Kd
B1	no binding (tested: BLI response <0.05 nm)	–
B2	–	2.47 nM
B3	–	4.98 nM
B4	–	2.25 nM
B13	–	0.301 nM
B14	–	0.312 nM
B5	no binding (tested: BLI response <0.05 nm)	–
B17	–	3.09 nM
B6	–	2.32 nM
B15	–	0.499 nM
B18	–	0.417 nM
B16	–	1.27 nM

Target: RSV F protein of subtype B strain 18537, on virus (respiratory syncytial virus subtype B …, UniProt P13843 26-574)
Assay: cell-based or functional assay

Binder	Neut IC50 (ug/ml) subtype B
B1	0.038 µg/mL
B2	0.034 µg/mL
B3	0.036 µg/mL
B4	5.72 µg/mL
B13	> 10 µg/mL
B14	> 10 µg/mL
B5	3.27 µg/mL
B17	> 10 µg/mL
B6	0.019 µg/mL
B15	> 10 µg/mL
B7	> 10 µg/mL
B8	0.015 µg/mL
B9	0.273 µg/mL
B10	0.802 µg/mL
B11	0.082 µg/mL
B12	> 10 µg/mL
B18	> 10 µg/mL

Target: RSV F protein of subtype A strain A2, on virus (respiratory syncytial virus subtype A …, UniProt P03420 26-574)
Assay: cell-based or functional assay

Binder	Neut IC50 (ug/ml) subtype A
B1	0.022 µg/mL
B2	0.014 µg/mL
B3	0.012 µg/mL
B4	1.42 µg/mL
B13	> 10 µg/mL
B14	> 10 µg/mL
B5	3.76 µg/mL
B17	6.25 µg/mL
B6	0.003 µg/mL
B15	1.41 µg/mL
B7	4.48 µg/mL
B8	0.046 µg/mL
B9	0.795 µg/mL
B10	> 10 µg/mL
B11	0.081 µg/mL
B12	0.022 µg/mL
B18	0.727 µg/mL
